Assay results published in publication PMC13107026, “Intestinal epithelial C/EBPβ deficiency impairs colitis-associated tumorigenesis by disrupting CXCL1/CXCL2/CXCL5-CXCR2-mediated neutrophil infiltration”.

B1: CXCL2 MUT probe (dsDNA)
DNA 1: TAGAAGTGGTAGGGTCTCCTCTTACTGATA
DNA 2: TATCAGTAAGAGGAGACCCTACCACTTCTA
B2: CXCL2 WT probe (dsDNA)
DNA 1: TAGAAGTGGTGTTTCACAACCTTACTGATA
DNA 2: TATCAGTAAGGTTGTGAAACACCACTTCTA
B3: CXCL5 MUT probe (dsDNA)
DNA 1: CACTGTCAATTTTTATGGCAG
DNA 2: CTGCCATAAAAATTGACAGTG
B4: CXCL5 WT probe (dsDNA)
DNA 1: CACTGTCTTGCTCCATGGCAG
DNA 2: CTGCCATGGAGCAAGACAGTG
B5: CXCL1 WT probe (dsDNA)
DNA 1: TGGAACTTTCAAAATCCCCT
DNA 2: AGGGGATTTTGAAAGTTCCA
B6: CXCL1 MUT probe (dsDNA)
DNA 1: TGGAAACGGTCCCCACCCCT
DNA 2: AGGGGTGGGGACCGTTTCCA

Legend:
C/EBPβ [1] = molecular target: T1, C/EBPβ (Homo sapiens, UniProt P17676 1-345); assay: competition; 100-fold molar excess vs biotin CXCL2 WT probe; LightShift Chemiluminescent EMSA kit; 6% native polyacrylamide gel, 0.5x TBE, 100 V, 60 min; binding buffer, salt, pH and temperature not stated; details: protein: recombinant; chain copies: 2; label: unlabeled; blunt
T1 sequence (P17676 whole entry): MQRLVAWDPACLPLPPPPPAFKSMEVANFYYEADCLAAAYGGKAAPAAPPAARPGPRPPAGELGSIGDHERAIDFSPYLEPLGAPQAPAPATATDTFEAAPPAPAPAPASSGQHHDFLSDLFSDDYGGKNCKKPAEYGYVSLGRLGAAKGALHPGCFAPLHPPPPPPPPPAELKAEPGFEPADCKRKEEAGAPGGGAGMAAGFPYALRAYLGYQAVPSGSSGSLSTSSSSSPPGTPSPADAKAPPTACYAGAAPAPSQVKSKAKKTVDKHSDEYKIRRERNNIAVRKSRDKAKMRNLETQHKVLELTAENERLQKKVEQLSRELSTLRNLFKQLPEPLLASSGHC

C/EBPβ [2] = molecular target: T1, C/EBPβ; assay: EMSA, competition, supershift; LightShift Chemiluminescent EMSA kit; 6% native polyacrylamide gel, 0.5x TBE, 100 V, 60 min; binding buffer, salt, pH and temperature not stated; details: protein: recombinant; chain copies: 2; label: biotin (5' of both strands); blunt
C/EBPβ [3] = molecular target: T1, C/EBPβ; assay: competition; 100-fold molar excess vs biotin CXCL5 WT probe; LightShift Chemiluminescent EMSA kit; 6% native polyacrylamide gel, 0.5x TBE, 100 V, 60 min; binding buffer, salt, pH and temperature not stated; details: protein: recombinant; chain copies: 2; label: unlabeled; blunt
C/EBPβ [4] = molecular target: T1, C/EBPβ; assay: competition; 100-fold molar excess vs biotin CXCL1 WT probe; LightShift Chemiluminescent EMSA kit; 6% native polyacrylamide gel, 0.5x TBE, 100 V, 60 min; binding buffer, salt, pH and temperature not stated; details: protein: recombinant; chain copies: 2; label: unlabeled; blunt

Binder	binding result (C/EBPβ [2])	also measured
B1	–	binding result (C/EBPβ [1]): no binding
B2	binds	–
B3	–	binding result (C/EBPβ [3]): no binding
B4	binds	–
B5	binds	–
B6	–	binding result (C/EBPβ [4]): no binding
